Assay [1] addresses T1, H1MI15-I53_dn5B trimer (A/Michigan/45/2015 HA 1-676 Y98F no lkr dn5B.SA.WELQ-H) (influenza A virus H1/A/Michigan/45/2015 …). Put plainly: in vitro nanoparticle assembly.
Assay [2] addresses T1, H1MI15-I53_dn5B trimer …. Put plainly: in vitro nanoparticle assembly; SEC, DLS, nsTEM.
In assay [3] the target is T1, H1MI15-I53_dn5B trimer …. The experiment in a line: in vitro nanoparticle assembly, SEC.
The target in assay [4] is T1, H1MI15-I53_dn5B trimer …. Put plainly: in vitro nanoparticle assembly, SEC and SDS-PAGE.

Seven molecules from patent US20240042018A1 (University of Washington, published 2024) can be followed below.

B1: I53_dn5A_2gly pentamer (designed binder)
chain: KYDGSKLRIGILHARGNAEIILELVLGALKRLQEFGVKRENIIIETVPGSFELPYGSKLFVEKQKRLGKPLDAIIPIGVLIRGNDTHFDYIADSTTHQLMKLNFELGIPVIFGVLTTNSTEQAEERAGTKAGNHGEDWGAAAVEMATKFNLEEQKLISEEDLHHHHHH
B1: in assay [1], the binding result was “binds”.

B2: I53_dn5Acp7 PAS pentamer (designed binder)
chain: MGSHHHHHHGSDEQAEERAGTKAGNHGEDWGAAAVEMATKFNGSGGSGKYDGSKLRIGILHARGNAEIILELVLGALKRLQEFGVKRENIIIETVPGSFELPYGSKLFVEKQKRLGKPLDAIIPIGVLIRGSTAHFDYIADSTTHQLMKLNFELGIPVIFGVLTTESGGSASPAAPAPASPAAPAPSAPAAASPAAPAPASPAAPAPSAPAAASPAAPAPASPAAPAPSAPAA
For the molecule B2, the binding result in assay [2] was “binds”.

B3: I53_dn5A_1C5kPEG pentamer (designed binder)
chain: MGKYDGSKLRIGILHARGNAEIILALVLGALKRLQEFGVKRENIIIETVPGSFELPYGSKLFVEKQKRLGKPLDAIIPIGVLIRGSTPHFDYIADSTTHQLMKLNFELGIPVIFGVITADTCEQAEARAGLIEGKMHNHGEDWGAAAVEMATKFNGGWELQLEGSHHHHHH
For B3, the binding result in assay [3] was “binds”.

B4: I53_dn5A_D120C pentamer coupled to 2 kDa PEG (designed binder)
chain: MGKYDGSKLRIGILHARGNAEIILALVLGALKRLQEFGVKRENIIIETVPGSFELPYGSKLFVEKQKRLGKPLDAIIPIGVLIRGSTPHFDYIADSTTHQLMKLNFELGIPVIFGVITADTCEQAEARAGLIEGKMHNHGEDWGAAAVEMATKFNGGWELQLEGSHHHHHH
Turning to B4, the binding result in assay [4] is on record as “binds”.

B5: I53_dn5A_D120C pentamer coupled to 1 kDa PEG (designed binder)
chain: MGKYDGSKLRIGILHARGNAEIILALVLGALKRLQEFGVKRENIIIETVPGSFELPYGSKLFVEKQKRLGKPLDAIIPIGVLIRGSTPHFDYIADSTTHQLMKLNFELGIPVIFGVITADTCEQAEARAGLIEGKMHNHGEDWGAAAVEMATKFNGGWELQLEGSHHHHHH
With B5, the binding result in assay [4] is on record as “binds”.

B6: I53_dn5A_S84C_D120C pentamer coupled to 1 kDa PEG (designed binder)
chain: MGKYDGSKLRIGILHARGNAEIILALVLGALKRLQEFGVKRENIIIETVPGSFELPYGSKLFVEKQKRLGKPLDAIIPIGVLIRGCTPHFDYIADSTTHQLMKLNFELGIPVIFGVITADTCEQAEARAGLIEGKMHNHGEDWGAAAVEMATKFNGGWELQLEGSHHHHHH
In the case of B6, the binding result in assay [2] is “binds”.

B7: I53_dn5A_2C2kPEG pentamer (designed binder)
chain: MGKYDGSKLRIGILHARGNAEIILALVLGALKRLQEFGVKRENIIIETVPGSFELPYGSKLFVEKQKRLGKPLDAIIPIGVLIRGCTPHFDYIADSTTHQLMKLNFELGIPVIFGVITADTCEQAEARAGLIEGKMHNHGEDWGAAAVEMATKFNGGWELQLEGSHHHHHH
For B7, the binding result in assay [2] is “binds”.
